The source of these data is paper PMC2652662, “Studies of a Ring-Cleaving Dioxygenase Illuminate the Role of Cholesterol Metabolism in the Pathogenesis of Mycobacterium tuberculosis” (PLoS Pathogens, 2009).

In data set [1] the target is T1, HsaC (Mycobacterium tuberculosis, UniProt P9WNW7).
T1 construct: full-length, recombinant in E. coli, purified anaerobically, no tag mentioned; Fe(II) enzyme; gene 903 bp; octamer
The data set is classed as biochemical. The note with it: 20 mM HEPES, 80 mM NaCl, pH 7.0, 5% O2, 25°C; slow substrate, mechanism-based oxidative inactivation.

The subject of data set [2] is Cc1cc(Cl)c(O)c(O)c1CCc1ccccc1Cl. Nature of the data set: purified protein. The note with it: pH 7.0; 25.0 °C.
In data set [3] the test system is Oc1cccc(-c2ccccc2)c1O. Nature of the data set: purified protein. The note with it: pH 7.0; 25.0 °C.
For data set [4], the system named is Cc1ccc(O)c(O)c1CCc1ccccc1Cl. As to the kind of experiment: purified protein. Conditions: pH 7.0; 25.0 °C.
Data set [5] deals with Cc1ccc(O)c(O)c1CC[C@@H]1C(=O)CC[C@]2(C)C(=O)CC[C@@H]12. Nature of the data set: purified protein. The note with it: pH 7.0; 25.0 °C.

T1 sequence (P9WNW7 whole entry): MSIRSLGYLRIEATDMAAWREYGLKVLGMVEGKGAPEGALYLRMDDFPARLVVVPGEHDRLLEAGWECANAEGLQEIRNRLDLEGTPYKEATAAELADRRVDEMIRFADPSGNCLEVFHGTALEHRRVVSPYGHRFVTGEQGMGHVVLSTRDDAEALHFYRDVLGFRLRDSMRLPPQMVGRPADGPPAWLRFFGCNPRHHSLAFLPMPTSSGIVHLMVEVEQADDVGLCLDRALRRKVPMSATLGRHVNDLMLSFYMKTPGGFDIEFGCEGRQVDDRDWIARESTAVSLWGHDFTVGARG

With `Oc1cccc(-c2c(Cl)cccc2Cl)c1O` [2′,6′-diCl DHB], the Km in data set [1] stood at 6.7 µM.
Take HsaC (Mycobacterium tuberculosis H37Rv): the Km is given as 3.2 (0.3) µM in data set [2], 10 (2) µM in data set [3], 4.8 (0.6) µM in data set [4] and 1.1 (0.2) µM in data set [5]. Further, the kcat/Km in data set [2] was 85000 M⁻¹ s⁻¹; in data set [3], 160000 M⁻¹ s⁻¹; in data set [4], 1.4e+06 M⁻¹ s⁻¹; in data set [5], 1.5e+07 M⁻¹ s⁻¹.
